Results: the supplement of paper PMC7125110
± gives the standard error. Fewer inactive variants are shown than the library holds.

B1: glmS ribozyme (parent)
chain: AUAAAAGCGCCAGAACUACAGAAAUGUAGUUGACGAGGAGGAGGUUUAUCGAAUUUUCGGCGGAUGCCUCCAAA

Assays:
Details in all cases: with glucosamine-6-phosphate
glucosamine-6-phosphate [1] = variants of: B1; assay: self-cleavage kobs at 40 uM GlcN6P; higher = faster cleavage; RNA array
Procedure, shortened: (§1)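 Barcoded ribozyme variants on sequenced MiSeq chips were transcribed in situ by E. coli RNA polymerase and followed at 37 °C through a hybridised Cy3 probe. Glucosamine-6-phosphate at 40 μM to 10 mM in HEPES/KCl/Mg(OAc)2 buffer was flowed in, and tiles were imaged over ~14 h. Signals were normalised to baseline and to non-cleaving reference variants, and per-tile medians were fit to one- or two-exponential decays to give kobs. Weighted Michaelis–Menten fits across concentrations gave kcat and KM.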

glucosamine-6-phosphate [2] = variants of: B1; assay: self-cleavage kobs at 2500 uM GlcN6P; higher = faster cleavage; RNA array
Procedure, shortened: as §1

glucosamine-6-phosphate [3] = variants of: B1; assay: self-cleavage kobs at 10000 uM GlcN6P; higher = faster cleavage; RNA array
Procedure, shortened: as §1

glucosamine-6-phosphate [4] = variants of: B1; assay: self-cleavage kobs at 160 uM GlcN6P; higher = faster cleavage; RNA array
Procedure, shortened: as §1

glucosamine-6-phosphate [5] = variants of: B1; assay: self-cleavage kobs at 640 uM GlcN6P; higher = faster cleavage; RNA array
Procedure, shortened: as §1

Variant	self-cleavage kobs at 40 uM GlcN6P (glucosamine-6-phosphate [1]) [s⁻¹]	self-cleavage kobs at 2500 uM GlcN6P (glucosamine-6-phosphate [2]) [s⁻¹]	self-cleavage kobs at 10000 uM GlcN6P (glucosamine-6-phosphate [3]) [s⁻¹]	self-cleavage kobs at 160 uM GlcN6P (glucosamine-6-phosphate [4]) [s⁻¹]	self-cleavage kobs at 640 uM GlcN6P (glucosamine-6-phosphate [5]) [s⁻¹]
AUAAAAGCGCCAGAACUACAGAAAUGUAGUUGACCAGGAGGUGGCUUAUCGAAUUUUCUGCGGAUGCCUCCAAA [G35C A42U U45C G59U]	< 1e-05	–	–	–	–
AUAAAAGCGCCAGAACUACAGAAAUGUAGUUGACGACGAGGAGGUUUAUCGAAUUUUCGGCGGCUGCUUCCAAA [G37C A64C C68U]	< 1e-05	< 1e-05	< 1e-05	–	–
AUAAAAGGGCCAGAACUACAGAAAUGUAGUUGACGAGGAGGAGGUUUAUCGAAUUUUCGGCGGAUGUCUCCAAA [C8G C67U]	< 1e-05	< 1e-05	–	< 1e-05	< 1e-05
AUAAAAGCGCCAGAACUACAGAAAUGUAGUUGACGAGGAGGAGGUUUAUCGAAUGUUAGCGGGAUGACUCCAAA [U55G C58A G60C C61G C67A]	< 1e-05	–	–	–	–
AUAAAAGCACCAGAACUACAGAAAUGUAGUUGACGCGGAGGAGGUUUACCGAAUUUUCGGCGGAUGCCUCCAAA [G9A A36C U49C]	< 1e-05	< 1e-05	< 1e-05	–	–
AUAAAAGCGCCAGAACUACAGAAAUGUAGGUGACGAGGAGGAGUUUUAUCGAAUUUUCGGCGGAUGCCUCCAAA [U30G G44U]	< 1e-05	–	4.23e-05 ± 1.3e-05	< 1e-05	–
AUAAAAGCGCUAGAACUACAGAAAUGUAGUUCACGAGGAGGAGGUUUAUCGAAUUUUUGGCGGAUGCCUGCAAA [C11U G32C C58U C70G]	4.92e-05 ± 2.1e-05	–	–	–	–
AUAAAAGCGCCUGAACUACAGAAAUGUAGUUGACGAGGAAGAGGCUUAUCGAAUUUUCGGCGGAUGCCUCCAAA [A12U G40A U45C]	6.12e-05 ± 2e-05	–	0.00175 ± 0.0003	–	–
AUAAAAGCGCCAGAACUACAGAAAUGUAGUUGACGAGGAGGAGGUUUAGCGAAUUUUCGGCGGAUCCCUCCAAA [U49G G66C]	< 1e-05	< 1e-05	–	–	–
AUAAAAGCGCCAGAACUACAGAAAUGUAGUGGACGAGGAGGAGGUUUAUCGAAUUUUCCGCGGAUGCCUCCAAA [U31G G59C]	< 1e-05	–	< 1e-05	< 1e-05	< 1e-05
AUAAAAGCGCCAGAACUACAGAAAUGUAGUUGACGAGGAGGAGGUUUAUCGGAUUUUCGGCGCAUGCCUCCAAA [A52G G63C]	< 1e-05	–	–	–	–
AUAAAAGCGCCAGAACUACAGAAAUGUAGUUGACGAGGAGGAGGCUUAUCGAAUUUUCGGCGGAUGACUGCAAA [U45C C67A C70G]	< 1e-05	< 1e-05	–	–	–
AUAAAAGCGCGAGAGCUACAGAAAUGUAGUUGACGAGGAGGAGGUUUAUCGACUUUUCGGCGGAUGCCUCCAAA [C11G A15G A53C]	< 1e-05	< 1e-05	–	–	–
AUAAAAGCGCCAGAACUACAGAAAUGUAGUUGACGAGGAGGAGGUUUAUCGAAUUUUCGGCGGGUGCGUCAAAA [A64G C68G C71A]	< 1e-05	–	< 1e-05	< 1e-05	< 1e-05
AUAAAAGCGCCAGAACUACAGAAAUGUAGUUGACGAGGAGGAGGUUGAUCGAAUUUUCGGCGGAUGCCACCAAA [U47G U69A]	5.4e-05 ± 1.7e-05	0.000193 ± 3.4e-05	8.6e-05 ± 1.4e-05	7.68e-05 ± 1.4e-05	7.46e-05 ± 1.4e-05
